Test results: patent US20200109196A1 (MOGAM INSTITUTE FOR BIOMEDICAL RESEARCH, published 2020)
Numbering of substitutions follows the chain as printed. One block for each binder: values may come before it.

What was measured:
[1] = biological target: T1, CEACAM8 expressed on the surface of HEK293 cells (human, UniProt P31997 35-320); experiment: flow cytometry on transfected HEK293 cells (GFP+ gate), PE goat anti-huIgG4 [a]
T1 construct: whole, on cells
T1 sequence (looked up): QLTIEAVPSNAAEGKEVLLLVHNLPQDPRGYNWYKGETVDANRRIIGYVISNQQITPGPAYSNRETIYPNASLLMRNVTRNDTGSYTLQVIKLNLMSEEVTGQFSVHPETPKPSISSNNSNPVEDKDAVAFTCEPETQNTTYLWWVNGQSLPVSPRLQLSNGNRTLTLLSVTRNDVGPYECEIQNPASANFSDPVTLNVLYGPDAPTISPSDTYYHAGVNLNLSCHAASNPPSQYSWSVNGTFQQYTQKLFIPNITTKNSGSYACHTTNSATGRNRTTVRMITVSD
Experimental: HEK293 cells were added with 10 μg of each pEF1α-AcGFP-N1 vector (Clontech, Cat. No. 631973) as a control vector, CEACAM1, CEACAM3, CEACAM5, CEACAM6 and CEACAM8 plasmid vectors, followed by transfection under the condition of pulse voltage 1,100 V, pulse width 20 ms and pulse number 2. After 48 hours of transfection, GFP expression was confirmed by fluorescence microscopy. The cells were detached by treatment with 1 ml of TrypLE Express Solution (ThermoFisher Scientific; Cat. No. 12605010), resuspended in 9 ml of DMEM (Gibco, Cat. No. 11995-065) supplemented with 10% (v/v) FBS, and centrifuged at 1,200 rpm for 5 minutes, to remove the resulting supernatant.
After washing once with PBS, the cells were resuspended in a FACS buffer to obtain a concentration of 5×10⁵ cells/100 μl. Human Fc Block solution was added to the samples at 1 μl/sample, which were incubated at 4° C. for 10 minutes. The cells were treated with hulgG4 or one of the anti-CEACAM1 clones listed at 1 μg/5×10⁵ cells, which were incubated at 4° C. for 10 minutes. After washing with FACS buffer, the PE-labeled goat-anti-huIgG4 antibodies were diluted at a ratio of 1:200 in a FACS buffer, and added to the samples at 100 μl/sample, which were incubated at 4° C. for 30 minutes. The samples were filled with a FACS buffer up to 200 μl, and then centrifuged at 1,200 rpm for 5 minutes, to remove the resulting supernatant. The fixation buffer (300 μl) was added to resuspend the cells. The cells expressing GFP were selected in the FACS LSR-Fortessa device, and the expression of CEACAM members were evaluated respectively using the antibody specific to each CEACAM member (Table 3). Also, the binding of anti-CEACAM1 antibodies was evaluated by PE fluorescence channel and analyzed using the FlowJo software.

[2] = biological target: T2, recombinant CEACAM1 protein (UniProt P13688 35-428, limits assumed); experiment: ELISA, coated recombinant CEACAM1, anti-human IgG-HRP detection
T2 sequence (looked up): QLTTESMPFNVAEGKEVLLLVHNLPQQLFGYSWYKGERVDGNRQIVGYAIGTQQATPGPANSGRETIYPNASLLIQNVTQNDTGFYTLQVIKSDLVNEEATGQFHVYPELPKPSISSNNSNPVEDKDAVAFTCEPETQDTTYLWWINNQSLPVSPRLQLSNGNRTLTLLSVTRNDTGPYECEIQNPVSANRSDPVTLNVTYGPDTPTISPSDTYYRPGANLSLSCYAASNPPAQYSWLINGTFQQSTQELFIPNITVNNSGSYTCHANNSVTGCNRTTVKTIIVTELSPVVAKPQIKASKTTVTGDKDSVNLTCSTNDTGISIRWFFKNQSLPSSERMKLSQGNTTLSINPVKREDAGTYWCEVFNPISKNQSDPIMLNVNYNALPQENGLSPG
Experimental: Then, each well was washed 3 times with a washing buffer prepared by diluting 10 μl of Tween 20 (Sigma-Aldrich; Cat. No. P9146) in 990 μl of PBS.

[3] = biological target: T3, human CEACAM1 expressed on the cell surface (CEACAM1-Jurkat T cells); HEK293 cells transfected with human … (human, UniProt P13688 35-526); experiment: flow cytometry on CEACAM1-Jurkat T cells; maximal MFI told of the 'other clones' as a group
T3 construct: whole, on cells; also called CCM1
T3 sequence (looked up): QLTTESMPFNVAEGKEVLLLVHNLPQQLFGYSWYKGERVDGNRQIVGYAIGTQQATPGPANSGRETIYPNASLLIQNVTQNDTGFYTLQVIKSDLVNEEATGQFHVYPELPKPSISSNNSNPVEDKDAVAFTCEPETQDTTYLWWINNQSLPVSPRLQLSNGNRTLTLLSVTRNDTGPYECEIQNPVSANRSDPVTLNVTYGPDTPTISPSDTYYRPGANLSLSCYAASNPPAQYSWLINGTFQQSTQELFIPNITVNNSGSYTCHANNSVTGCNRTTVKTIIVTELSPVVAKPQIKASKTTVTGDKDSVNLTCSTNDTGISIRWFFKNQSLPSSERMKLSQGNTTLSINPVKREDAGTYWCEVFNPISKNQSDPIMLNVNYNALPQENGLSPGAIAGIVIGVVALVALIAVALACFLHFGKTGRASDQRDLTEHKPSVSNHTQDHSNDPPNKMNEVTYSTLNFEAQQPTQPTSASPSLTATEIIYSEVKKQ
Experimental: The CEACAM1-Jurkat T cells prepared above were treated with Fc block solution and incubated for 15 minutes. […] Herein, it is noted that the cell numbers were adjusted to 1×10⁵. The cells incubated with the antibodies were repeatedly subjected to the washing procedure of resuspending the cells in a FACS buffer and centrifuging the solution at 1,500 rpm.
PE-conjugated goat anti-human F(ab)₂; (Sigma; Cat. No. P8047)) was diluted in the FACS buffer at a volume ratio of 1:200, and then added to the cells at 100 μl/well. Cells were resuspended well and incubated at 4° C. for 30 minutes in a dark condition.
The cells incubated with the fixation buffer were repeatedly subjected to the washing procedure of resuspending the cells in a FACS buffer, centrifuging the solution at 1,500 rpm, and discarding the supernatant. The washed cells were resuspended in 200 μl of a FACS buffer, and the mean fluorescence intensities (MFIs) of the PE-labeled cells were monitored by a FACS LSR-Fortessa. All FACS analyses were conducted using the FlowJo software.

B1: C25 (antibody, human IgG4 S228P, lambda, V domains shown)
VH: EVQLLESGGGLVQPGGSLRLSCAASGFTFSNYAMSWVRQAPGKGLEWVSVISHGGGSIYYADSVKGRLTISRDNSKNTLYLQMNSLRAEDTAVYYCARDPTKGYAPTFDYWGQGTLVTVSS
VL: QSVLTQPPSASGTPGQRVTISCSGSSSNIGNNYVSWYQQLPGTAPKLLIYADSKRPSGVPDRFSGSKSGTSASLAISGLRSEDEADYYCGAWDASLNGYVFGGGTKLTVLG
notes: Made in ExpiHEK293F cells, protein A purified. huIgG4 is the isotype control and anti-huIgG4 the detection reagent; the isotype is not otherwise stated; also called anti-CEACAM1 antibody C25
- binding result [1]: no binding
- EC50 [2]: 0.35 nM

B2: 4R9 (antibody, human IgG4 S228P, lambda, V domains shown)
VH: B1 VH
VL: B1 VL with K54R, A94L
notes: also called C25-derived clone 4R9
- MFI [3]: 8000

Continued, values first:

- MFI [3]: 8000
B3: 4R26 (antibody, human IgG4 S228P, lambda, V domains shown)
VH: B1 VH
VL: B1 VL with P56L, A94G, S95R
notes: also called C25-derived clone 4R26

- MFI [3]: 8000
B4: 4R9_H2-2 (antibody, human IgG4 S228P, lambda, V domains shown)
VH: B1 VH with T107L
VL: B1 VL with K54R, A94L
notes: also called C25-derived clone 4R9_H2-2
